According to US11319366B2, “Antibody facilitating programmed necrosis of cells and application thereof” (SHANGHAI JW INFLINHIX CO., LTD., priority 2015, dated 2022):
Entries after “also recorded” stand apart in the source; their conditions may differ.

Legend:
L929 cells = test: Apoptosis and necrosis assay (live/dead staining, active caspase-3, flow cytometry) in L929 cells; type: cell-based, mouse
Method: (§1) The cells were stained with live/dead cell staining kits (Invitrogen, Paisley, UK) instructed by the manufacturer's manual and fixed using cytofix/cytoperm fixation/permeabilization solution kits (BD Pharmingen, Oxford, UK). This was followed by intracellular staining with FITC-conjugated anti-caspase-3 antibody (Cell Signaling Technology, Danvers, Mass., USA). Cells were acquired on a CyAn flow cytometer (Beckman Coulter, Fullerton, Calif.) and data were analyzed using Flowjo (Tree Star Inc. Ashland, Oreg.).

TNF [1] = target: T1, TNF (Homo sapiens, UniProt P01375); test: ELISA screening of monoclonal antibodies for binding to TNF; conditions: among 33 monoclonal antibodies
T1 construct: purchased Immunotools (Germany)
Method: A second antibody conjugated with HRP was used to detect the reaction. For the inhibition assay, TNFR1 or synovial fluids were added together with monoclonal antibodies.

[2] = test system: C28I2 cells (chondrocytes); test: Apoptosis assay (active caspase-3) in C28I2 cells; type: cell-based, human; conditions: C28I2 cells stimulated by TNF
Method: as §1

[3] = test system: TNF receptors on L929 cells; test: L929 cells immunofluorescence (confocal) microscopy of TNF/antibody binding to TNF receptors; type: cell-based, mouse
Method: The cells were fixed with 4% paraformaldehyde (in PBS) for 10 min, blocked in a phosphate-buffer containing 0.5% BSA and 0.1% cold water fish-gelatin for 15 min and subsequently incubated with rabbit anti-TNFR1 antibodies (Abcam) for 1 hour. The cells were extensively washed in PBS and then incubated with the relevant secondary antibodies, which were conjugated with Alexa Fluor 488 or Alexa Fluor 568 21 (Invitrogen). PBS-washed specimens were then mounted in Gelvatol/DABCO (Sigma-Aldrich). DNA was counterstained with DAPI (Sigma-Aldrich). All samples were analyzed by fluorescent microscopy using a Nikon Eclipse 80i at 60×. Images were acquired with NIS-Elements AR3.0 software using a Hamamatsu camera.

TNF [4] = target: T1, TNF; test: Identification of binding epitope of the monoclonal antibody

T1 sequence (P01375 77-233 limits assumed): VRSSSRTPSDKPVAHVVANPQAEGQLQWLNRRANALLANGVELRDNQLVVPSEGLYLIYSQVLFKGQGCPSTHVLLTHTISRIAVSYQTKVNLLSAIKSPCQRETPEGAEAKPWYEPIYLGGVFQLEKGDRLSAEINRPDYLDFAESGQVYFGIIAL

Molecule	effect on necrosis caused by 244-12+TNF (L929 cells; L929 cells, added into 244-12+TNF)	TNF-induced apoptosis (active caspase-3 expression) (L929 cells; L929 cells stimulated by TNF)	cell fate (apoptosis / survival / necrosis) of L929 cells (L929 cells; L929 cells, TNF alone or antibody added with TNF)	binding to TNF by ELISA (TNF [1])	TNF-induced apoptosis (active caspase-3 expression) [2]	effect on binding of TNF to TNF receptors ([3]; confocal microscopy, in the presence of TNF)	direct binding of antibody to cell surface ([3]; in the absence of TNF)	binding epitope (TNF [4])
CN1C(=O)C(Cc2c[nH]c3ccccc23)NC1=S (centres unmarked) [Nec-1, Necrostatin-1, reference compound]	cell necrosis was conversed into apoptosis; also recorded: cell necrosis transformed into apoptosis	–	–	–	–	–	–	–
244-12: anti-TNF monoclonal antibody specifically binding QLVVPSE; light chain SEQ ID NO: 10, heavy chain SEQ ID NO: 21 (antibody, listed as Homo sapiens) heavy: QIQLVQSGPELKKPGETVKISCKASGYTFTNYGMNWVKQAPGKGLKWMGWINTYTGEPTYADDFKGRFAFSLETSANTAYLQINNLRNEGMATYFCARHYRYAWFPYWGQGTLVTVSAAKTTPPSVYPLAPGCGDTTGSSVTLGCLVKGYFPESVTVTWNSGSLSSSVHTFPALLQSGLYTMSSSVTVPSSTWPSQTVTCSVAHPASSTTVDKKLEPSGPISTINPCPPCKECHKCPAPNLEGGPSVFIFPPNIKDVLMISLTPKVTCVVVDVSEDDPDVQISWFVNNVEVHTAQTQTHREDYNSTIRVVSTLPIQHQDWMSGKEFKCKVNNKDLPSPIERTISKIKGLVRAPQVYILPPPAEQLSRKDVSLTCLVVGFNPGDISVEWASNGHTEENYKDTAPVLDSDGSYFIYSKLNMKTSKWEKTDSFSCNVRHEGLKNYYLKKTISRSPGK light: DIQMTQSPASLSASVGETVTITCRASGNIHIYLAWYQQKQGKSPQLLVYNAKTLADGVPSRFSGSGSGTQYSLKINSLQPEDFGSYYCQHFWSIPWTFGGGTKLEIKRADAAPTVSIFPPSSEQLTSGGASVVCFLNNFYPKDINVKWKIDGSERQNGVLNSWTDQDSKDSTYSMSSTLTLTKDEYERHNSYTCEATHKTSTSPIVKSFNRNEC	–	apoptosis was inhibited; also recorded: blocks TNF-induced apoptosis	necrosis of L929 cells occurred; also recorded: necrosis of L929 cell	bound TNF the strongest	blocks TNF-induced apoptosis	does not affect the binding of TNF to cell surface receptors	can not directly bind to cell surface	QLVVPSE
